According to patent publication US20230074436A1 (DENALI THERAPEUTICS, published 2023):
No end group written: not given here. *: point of attachment. Biotin = O=C1N[C@H]2[C@H](CS[C@H]2CCCCC(=O)*)N1

Key:
[1] = biological target: T1, asyn_113-127_117A (human); test: Ala-scan peptide ELISA, row E, run 2
T1 construct: substitution is already in the entry; also called pep6
T1 peptide: Biotin-LEDMAVDPDNEAYEM
Description: (§1) 96-well Nunc plates were coated with 50 μL per well of 1 μg/mL streptavidin (from Jackson Immuno Research Laboratory) in PBS at 4° C. overnight. The plates were washed three times with PBST, and blocked with PBS containing 3% BSA at room temperature for 1 hour. The N-terminal biotinylated peptides were dissolved in Milli Q water to a concentration of 2 mg/mL, then further diluted to a concentration of 2 μg/mL with PBS. 50 μl of the diluted peptide was applied to the streptavidin-coated plates and incubated at 4° C. overnight. 2 μg/mL of biotinylated human alpha-synuclein was used as the positive control. The plates were washed three times with PBST before use. Purified antibody was diluted by serial dilution methods, from 20 μg/mL to 1 ng/mL, and 50 μL of the antibody solution was added to the peptide-coated wells. The plates were incubated for 1 hour at room temperature, then washed three times with PBST. Secondary detection antibody (goat anti-rat HRP (obtained from Southern Biotech)) was added with 1:5,000 dilutions and incubated for 1 hour at room temperature, then washed three times with PBST. Plates were developed with 50 μL/well of TMB substrate (Thermo Fisher) and quenched with 50 μL/well of 1 N sulfuric acid. The signal was quantified on a BioTek® plate reader at A450. A parallel repeat was performed for each peptide in a separate plate.

[2] = biological target: T2, asyn_113-127 (human); test: Ala-scan peptide ELISA, row E, run 2
T2 construct: also called pep1
T2 peptide: Biotin-LEDMPVDPDNEAYEM
Description: as §1

[3] = biological target: T3, asyn_113-127_114A (human); test: Ala-scan peptide ELISA, row E, run 2
T3 construct: substitution is already in the entry; also called pep3
T3 peptide: Biotin-LADMPVDPDNEAYEM
Description: as §1

[4] = biological target: T4, asyn_113-127_125A (human); test: Ala-scan peptide ELISA, row E, run 2
T4 construct: substitution is already in the entry; also called pep15
T4 peptide: Biotin-LEDMPVDPDNEAAEM
Description: as §1

[5] = biological target: T5, asyn_113-127_121A (human); test: Ala-scan peptide ELISA, row E, run 2
T5 construct: substitution is already in the entry; also called pep10
T5 peptide: Biotin-LEDMPVDPANEAYEM
Description: as §1

[6] = biological target: T6, asyn_113-127_120A (human); test: Ala-scan peptide ELISA, row E, run 2
T6 construct: substitution is already in the entry; also called pep9
T6 peptide: Biotin-LEDMPVDADNEAYEM
Description: as §1

[7] = biological target: T7, asyn_113-127_122A (human); test: Ala-scan peptide ELISA, row E, run 2
T7 construct: substitution is already in the entry; also called pep11
T7 peptide: Biotin-LEDMPVDPDAEAYEM
Description: as §1

[8] = biological target: T8, asyn_113-127_123A (human); test: Ala-scan peptide ELISA, row E, run 2
T8 construct: substitution is already in the entry; also called pep12
T8 peptide: Biotin-LEDMPVDPDNAAYEM
Description: as §1

[9] = biological target: T9, asyn_113-127_118A (human); test: Ala-scan peptide ELISA, row E, run 2
T9 construct: substitution is already in the entry; also called pep7
T9 peptide: Biotin-LEDMPADPDNEAYEM
Description: as §1

[10] = biological target: T10, asyn_113-127_119A (human); test: Ala-scan peptide ELISA, row E, run 2
T10 construct: substitution is already in the entry; also called pep8
T10 peptide: Biotin-LEDMPVAPDNEAYEM
Description: as §1

[11] = biological target: T11, asyn_113-127_116A (human); test: Ala-scan peptide ELISA, row E, run 2
T11 construct: substitution is already in the entry; also called pep5
T11 peptide: Biotin-LEDAPVDPDNEAYEM
Description: as §1

[12] = biological target: T12, biotinylated human alpha-synuclein (human, UniProt P37840 1-140); test: Ala-scan peptide ELISA, row E, run 2
Description: as §1

[13] = biological target: T13, asyn_113-127_124P (human); test: Ala-scan peptide ELISA, row E, run 2
T13 construct: substitution is already in the entry; also called pep14
T13 peptide: Biotin-LEDMPVDPDNEPYEM
Description: as §1

[14] = biological target: T14, asyn_113-127_126A (human); test: Ala-scan peptide ELISA, row E, run 2
T14 construct: substitution is already in the entry; also called pep16
T14 peptide: Biotin-LEDMPVDPDNEAYAM
Description: as §1

[15] = biological target: T15, asyn_113-127_115A (human); test: Ala-scan peptide ELISA, row E, run 2
T15 construct: substitution is already in the entry; also called pep4
T15 peptide: Biotin-LEAMPVDPDNEAYEM
Description: as §1

[16] = biological target: T16, asyn_113-127_124G (human); test: Ala-scan peptide ELISA, row E, run 2
T16 construct: substitution is already in the entry; also called pep13
T16 peptide: Biotin-LEDMPVDPDNEGYEM
Description: as §1

[17] = biological target: T17, asyn_113-127_113A (human); test: Ala-scan peptide ELISA, row E, run 2
T17 construct: substitution is already in the entry; also called pep2
T17 peptide: Biotin-AEDMPVDPDNEAYEM
Description: as §1

[18] = biological target: T18, asyn_113-127_127A (human); test: Ala-scan peptide ELISA, row E, run 2
T18 construct: substitution is already in the entry; also called pep17
T18 peptide: Biotin-LEDMPVDPDNEAYEA
Description: as §1

[19] = biological target: T1, asyn_113-127_117A; test: Ala-scan peptide ELISA, row A, run 2
Description: as §1

[20] = biological target: T2, asyn_113-127; test: Ala-scan peptide ELISA, row A, run 2
Description: as §1

[21] = biological target: T3, asyn_113-127_114A; test: Ala-scan peptide ELISA, row A, run 2
Description: as §1

[22] = biological target: T4, asyn_113-127_125A; test: Ala-scan peptide ELISA, row A, run 2
Description: as §1

[23] = biological target: T5, asyn_113-127_121A; test: Ala-scan peptide ELISA, row A, run 2
Description: as §1

[24] = biological target: T6, asyn_113-127_120A; test: Ala-scan peptide ELISA, row A, run 2
Description: as §1

[25] = biological target: T7, asyn_113-127_122A; test: Ala-scan peptide ELISA, row A, run 2
Description: as §1

[26] = biological target: T8, asyn_113-127_123A; test: Ala-scan peptide ELISA, row A, run 2
Description: as §1

[27] = biological target: T10, asyn_113-127_119A; test: Ala-scan peptide ELISA, row A, run 2
Description: as §1

[28] = biological target: T11, asyn_113-127_116A; test: Ala-scan peptide ELISA, row A, run 2
Description: as §1

[29] = biological target: T12, biotinylated human alpha-synuclein; test: Ala-scan peptide ELISA, row A, run 2
Description: as §1

[30] = biological target: T13, asyn_113-127_124P; test: Ala-scan peptide ELISA, row A, run 2
Description: as §1

[31] = biological target: T14, asyn_113-127_126A; test: Ala-scan peptide ELISA, row A, run 2
Description: as §1

[32] = biological target: T16, asyn_113-127_124G; test: Ala-scan peptide ELISA, row A, run 2
Description: as §1

[33] = biological target: T17, asyn_113-127_113A; test: Ala-scan peptide ELISA, row A, run 2
Description: as §1

[34] = biological target: T18, asyn_113-127_127A; test: Ala-scan peptide ELISA, row A, run 2
Description: as §1

[35] = biological target: human alpha-synuclein oligomers (human, UniProt P37840 1-140); test: competition ELISA: oligomers titrated in solution against 0.6 nM antibody, free antibody read on aSyn-coated plate
Description: To measure the binding affinities of select antibodies toward oligomeric alpha-synuclein protein, purified antibodies were probed with different concentrations of human alpha-synuclein oligomers in solution, and the levels of unbound antibody were measured by ELISA analysis. In this experiment, 0.6 nM (0.1 pg/mL) of purified antibody was dissolved in phosphate-buffered saline (PBS) solution. […] The mixtures were gently shaken at room temperature for 1 hour to reach equilibrium. After that, these samples were transferred to an alpha-synuclein protein-coated ELISA plate, and antibody not bound to antigen in the previous solution was detected by direct ELISA.

B1: 20H4 (antibody, rat IgG2b, V domains shown)
VH: AVQLVESGGGLVQPKESLKISCAASGFTFSNAAMYWVRQAPGKGLELLARIRTKPNNYATYHADSVKGRFTISRDDSQSMVYLHMGNLKTEDTAMYYCTADMATGDYWGPGVMVTVSS
VL: DIQMTQSPPVLSVSVGDRVTLSCKASQNINKNLDWYQQKHGEAPKPLIYSTNNLQTGVPSRFSGSGSGTDYTLTISSLQPEDVATYYCYQYKSAWTFGGGTKLELR
notes: also called clone 20H4; rat 20H4
- A450 [1]: 0.267 OD
- A450 [2]: 0.242 OD
- A450 [3]: 0.243 OD
- A450 [4]: 0.049 OD
- A450 [5]: 0.223 OD
- A450 [6]: 0.15 OD
- A450 [7]: 0.05 OD
- A450 [8]: 0.259 OD
- A450 [9]: 0.256 OD
- A450 [10]: 0.045 OD
- A450 [11]: 0.247 OD
- A450 [12]: 0.531 OD
- A450 [13]: 0.047 OD
- A450 [14]: 0.272 OD
- A450 [15]: 0.145 OD
- A450 [16]: 0.215 OD
- A450 [17]: 0.237 OD
- A450 [18]: 0.279 OD
- A450 [19]: 0.462 OD
- A450 [20]: 0.374 OD
- A450 [21]: 0.401 OD
- A450 [22]: 0.078 OD
- A450 [23]: 0.391 OD
- A450 [24]: 0.314 OD
- A450 [25]: 0.08 OD
- A450 [26]: 0.441 OD
- A450 [27]: 0.06 OD
- A450 [28]: 0.418 OD
- A450 [29]: 0.907 OD
- A450 [30]: 0.069 OD
- A450 [31]: 0.469 OD
- A450 [32]: 0.396 OD
- A450 [33]: 0.44 OD
- A450 [34]: 0.504 OD
- IC50 [35]: 5.38 nM
